Results as given in patent US20060105385, “Xenobiotic related induction of gene expression” (The University of Sydney, published 2006).

B1: Prox-ER6 (dsDNA)
DNA 1: ATATGAACTCAAAGGAGGTCAGTG
DNA 2: CACTGACCTCCTTTGAGTTCATAT
B2: XREM-DR3-1 (dsDNA)
DNA 1: GAATGAACTTGCTGACCCTCT
DNA 2: AGAGGGTCAGCAAGTTCATTC
B3: XREM-DR3-2 (dsDNA)
DNA 1: ATATATTGTTATTGAACTATC
DNA 2: GATAGTTCAATAACAATATAT
B4: XREM-DR6 (dsDNA)
DNA 1: AGGTGAATCACAAGCTGAACTTCT
DNA 2: AGAAGTTCAGCTTGTGATTCACCT

What was measured:
Conditions in all cases: label: 32P
[1] = target: T1, hPXR-RXR heterodimer (human pregnane X receptor / retinoid X receptor) (UniProt O75469;P19793 O75469:1-434,P19793:1-462); test: EMSA; efficient gel shift
T1 sequence (O75469 whole entry, chain 1 of 2): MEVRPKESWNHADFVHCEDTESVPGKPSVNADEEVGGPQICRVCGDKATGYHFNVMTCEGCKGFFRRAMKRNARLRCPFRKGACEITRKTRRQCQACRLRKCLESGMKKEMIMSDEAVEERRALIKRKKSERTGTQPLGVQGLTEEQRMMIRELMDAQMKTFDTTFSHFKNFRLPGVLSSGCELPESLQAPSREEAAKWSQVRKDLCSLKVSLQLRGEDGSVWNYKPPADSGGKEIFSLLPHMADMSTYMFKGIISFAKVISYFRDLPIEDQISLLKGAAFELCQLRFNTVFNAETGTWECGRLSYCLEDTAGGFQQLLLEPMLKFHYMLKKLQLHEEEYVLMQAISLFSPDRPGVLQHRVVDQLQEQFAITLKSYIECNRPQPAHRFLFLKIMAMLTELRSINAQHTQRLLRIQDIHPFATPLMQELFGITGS
T1 sequence (P19793 whole entry, chain 2 of 2): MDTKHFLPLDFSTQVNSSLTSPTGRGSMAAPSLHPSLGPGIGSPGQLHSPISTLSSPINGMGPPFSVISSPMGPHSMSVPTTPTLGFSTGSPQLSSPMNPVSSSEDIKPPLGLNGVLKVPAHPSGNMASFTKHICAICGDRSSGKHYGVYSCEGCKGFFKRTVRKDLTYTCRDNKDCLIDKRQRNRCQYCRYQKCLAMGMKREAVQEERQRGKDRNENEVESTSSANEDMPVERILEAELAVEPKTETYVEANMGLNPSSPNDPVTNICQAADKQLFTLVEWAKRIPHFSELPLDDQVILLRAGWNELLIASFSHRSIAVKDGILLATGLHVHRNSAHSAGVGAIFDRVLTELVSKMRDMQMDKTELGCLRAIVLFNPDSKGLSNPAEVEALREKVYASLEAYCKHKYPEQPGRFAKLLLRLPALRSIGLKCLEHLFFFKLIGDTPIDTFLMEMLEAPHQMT
Procedure: (§1) The hPXR is an orphan nuclear receptor, belonging to the nuclear receptor gene superfamily. […] In order to evaluate the affinity of these putative response elements for HPXR-RXR heterodimers, electromobility shift assays (EMSA) were performed using with in-vitro transcribed/translated hPXR and RXR.

[2] = target: T1, hPXR-RXR heterodimer (human pregnane X …); test: EMSA; no shift apparent; described as functionally important by mutagenesis
Procedure: as §1

[3] = target: T1, hPXR-RXR heterodimer (human pregnane X …); test: EMSA; no shift apparent; mutation of the site lowers reporter to 52% of wild type
Procedure: as §1

Row | Binder | binding result [1] | other results
1 | B1 | binds | 
2 | B2 | binds | 
3 | B3 |  | binding result [2]: no binding
4 | B4 |  | binding result [3]: no binding
